Experimental data from publication PMC4272012 (Nature methods, 2014).

B1: LaG-27 (VHH)
VHH: DVQLVESGGGLVQAGGSLRLSCTASGLTISTYNIGWFRQAPGKEREFVGIIIRNGDTTYYADSVKGRFTISRDNAKNTVYLQMNSVKPADAAVYSCGATVRAGAAAEQYNSYIFRGQGTQVTV
B2: LaG-16 (VHH)
VHH: QVQLVESGGRLVQAGDSLRLSCAASGRTFSTSAMAWFRQAPGREREFVAAITWTVGNTILGDSVKGRFTISRDRAKNTVDLQMDNLEPEDTAVYYCSARSRGYVLSVLRSVDSYDYWGQGTQVTVS
B3: LaG-19 (VHH)
VHH: QVQLVESGGGLVQAGGSLRLSCAASGPTGAMAWFRQAPGKEREFVGGISRSGTDTYYVDSVKGRFTIDRDNAKNTVYLQMNSLKPEDTAVYYCAARRSQILFTSRTDYEFWGQGTQVTV
B4: LaG-41 (VHH)
VHH: DVQLVESGGGLVQAGGSLRLSCAASGPTGAMAWFRQAPGKEREFVGGISGSETDTYYVDSVKGRFTVDRDNVKNTVYLQMNSLKPEDTAVYYCAARRRITLFTSRTDYDFWGRGTQVTV
B5: LaG-43 (VHH)
VHH: DVQLVESGGGLVQPGGSLRLSCEASGGAFSTVAMGWFRQAPGKEREFVGAITWTAGSTYYADSAKGRFTISRDNAKNTVHLQMNSLKPEDTAVYYCAQRVRGFFGPLRTTPSWYEYWGQGTQVTVS
B6: LaG-26 (VHH)
VHH: QVQLVESGGGLVQAGASMRLSCAASGITFSLYHWVWFRQAAGREHEFVAGIIRSGGETLSADSVKDRFIISRDDAKNTLYLQMNMLQPEDTATYYCAATHRADWYSSAFREYIFRGQGTQVTVS
B7: LaG-9 (VHH)
VHH: DVQLVESGGGLVQAGGSLRLSCAASGRTFSTSAMGWFRQAPGKEREFVARITWSAGYTAYSDSVKGRFTISRDKAKNTVYLQMNSLKPEDTAVYYCASRSAGYSSSLTRREDYAYWGQGTQVTVS
B8: LaG-2 (VHH)
VHH: QVQLVESGGGLVQAGGSLRLSCAASGRTFSNYAMGWFRQAPGKEREFVAAISWTGVSTYYADSVKGRFTISRDNDKNTVYVQMNSLIPEDTAIYYCAAVRARSFSDTYSRVNEYDYWGQGTQVTV
B9: LaG-17 (VHH)
VHH: DVQLVESGGGLVQAGGSLRLSCAASGRTISMAAMSWFRQAPGKEREFVAGISRSAGSAVHADSVKGRFTISRDNTKNTLYLQMNSLKAEDTAVYYCAVRTSGFFGSIPRTGTAFDYWGQGTQVTVS
B10: LaG-21 (VHH)
VHH: QVQLVESGGGLVQAGGSLRLSCAASGPTGAMAWFRQAPGMEREFVGGISGSETDTYYADFVKGRLTVDRDNVKNTVDLQMNSLKPEDTAVYYCAARRRVTLFTSRADYDFWGQGTQVTVS
B11: LaG-14 (VHH)
VHH: QVQLVESGGGLVQAGGSLRLSCAASGRTYSISAMGWFRQAPGKEREFVAGISRSGGTTYYADPVKGRFTISRDNAKNTVYLQMNSLKPEDTAVYYCAARARGWTTFPAREIEYDYWGQGTQVTV

The binders below were run against GFPuv (Aequorea victoria, UniProt P42212, 15N-labeled).

Binding result, binds:
B1
B2
B3
B4
B5
B6
B7
B8
B9
B10
B11
